{"source": "paper PMC8879858", "about": "(Nature plants, 2021)", "target": "T1, cpSRP43-FL (Arabidopsis thaliana, UniProt O22265 57-373)", "T1 sequence (looked up)": "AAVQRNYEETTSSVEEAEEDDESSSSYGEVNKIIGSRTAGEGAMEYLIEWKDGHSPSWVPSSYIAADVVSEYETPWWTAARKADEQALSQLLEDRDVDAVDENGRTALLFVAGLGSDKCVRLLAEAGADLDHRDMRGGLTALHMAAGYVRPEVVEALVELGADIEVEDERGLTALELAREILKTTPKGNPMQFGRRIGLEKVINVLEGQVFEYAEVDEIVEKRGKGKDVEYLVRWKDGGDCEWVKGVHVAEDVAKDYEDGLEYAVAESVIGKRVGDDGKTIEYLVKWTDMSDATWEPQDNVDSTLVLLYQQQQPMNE", "experiment": "fluorescence polarisation", "note": "Where no end group is shown, it is not given here. fluorescein = fluorescein label covalently attached to the C-terminal cysteine", "data": [{"binder": "QKQKAPPGTARRKRKAC(fluorescein)", "note": "[fluorescein-labeled cpSRP54M peptide]", "values": [{"measurement": "binding result", "result": "binds"}]}]}
